B1: Azoarcus group I ribozyme (parent)
chain: GUGCCUUGCGCCGGGAAACCACGCAAGGGAUGGUGUCAAAUUCGGCGAAACCUAAGCGCCCGCCCGGGCGUAUGGCAACGCCGAGCCAAGCUUCGGCGCCUGCGCCGAUGAAGGUGUAGAGACUAGACGGCACCCACCUAAGGCAAACGCUAUGGUGAAGGCAUAGUCCAGGGAGUGGCGAAAGUCACACAAACCGG

Variants of: B1
Experiment: reverse-splicing fitness (ratio to wild type); higher = more active; in vitro selection; Mg2+ level not given
Summary of the method: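 An in vitro group I ribozyme library with randomized positions was T7-transcribed and gel-purified. In triplicate, 10 pmol RNA in EPPS pH 7.5 was reacted with 50 pmoles of a 30-nt RNA substrate for 1 h at 37 °C across several added MgCl2 levels (1–48 mM), then stopped with EDTA. Products were reverse transcribed from a substrate-complementary primer, PCR-amplified and sequenced (HiSeq 4000). Fitness is a variant's read proportion after selection over that before, normalised to wild type.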

For C82A A111C A145C, which reverse-splicing fitness is on record?
The reverse-splicing fitness was 0.212.

Which reverse-splicing fitness does the source give for C82A A111C A145U C150A C169A U176C here?
Its reverse-splicing fitness is 0.0143.

With C82A A111C A145U C150A C169A U176A as the variant, how does the reverse-splicing fitness read?
The reverse-splicing fitness was 0.0148.

With C82A A111C A145U C150A C169A U176G as the variant, how does the reverse-splicing fitness read?
Its reverse-splicing fitness is 0.00891.

Which reverse-splicing fitness does the source give for C82A A111C C150U C169G U176C here?
The reverse-splicing fitness was 0.0175.

Which reverse-splicing fitness does the source give for C82A A111C C150U C169G U176A here?
The reverse-splicing fitness was 0.013.

With C82A A111C A120U A145U C150U C169G U176A as the variant, how does the reverse-splicing fitness read?
Its reverse-splicing fitness is 0.00315.

Which reverse-splicing fitness does the source give for C82A A111C A120U A145U C150U C169G U176C here?
Its reverse-splicing fitness is 0.00338.

For C82A A111C A120U A145U C150U C169G U176G, which reverse-splicing fitness is on record?
The reverse-splicing fitness was 0.00247.

With C82A A111C A145U C150U C169A U176C as the variant, how does the reverse-splicing fitness read?
Its reverse-splicing fitness is 0.0146.

For C82A A111C A145U C150U C169A U176G, which reverse-splicing fitness is on record?
The reverse-splicing fitness was 0.00861.

With C82A A111C A145U C150U C169A U176A as the variant, how does the reverse-splicing fitness read?
Its reverse-splicing fitness is 0.014.

Which reverse-splicing fitness does the source give for C82A A111C A145C C169G U176C here?
The reverse-splicing fitness was 0.0216.

With C82A A111C A145C C169G U176A as the variant, how does the reverse-splicing fitness read?
Its reverse-splicing fitness is 0.0269.

For C82A A111C A145C C169G U176G, which reverse-splicing fitness is on record?
The reverse-splicing fitness was 0.00783.

Which reverse-splicing fitness does the source give for C82A A111C A145C C169A U176C here?
The reverse-splicing fitness was 0.00942.

Which reverse-splicing fitness does the source give for C82A A111C A145C C169A U176A here?
The reverse-splicing fitness was 0.0135.

Which reverse-splicing fitness does the source give for C82A A111C A145C C169A U176G here?
The reverse-splicing fitness was 0.00693.

With C82A A111C A120U A145U C169U U176C as the variant, how does the reverse-splicing fitness read?
Its reverse-splicing fitness is 0.00253.

For C82A A111C A120U A145U C169U U176A, which reverse-splicing fitness is on record?
The reverse-splicing fitness was 0.00262.

Which reverse-splicing fitness does the source give for C82A A111C A120U A145U C169U U176G here?
The reverse-splicing fitness was 0.002.

For C82A A111C A120U U176A, which reverse-splicing fitness is on record?
Its reverse-splicing fitness is 0.00732.

For C82A A111C A120U U176C, which reverse-splicing fitness is on record?
The reverse-splicing fitness was 0.0115.

Which reverse-splicing fitness does the source give for C82A A111C A120U U176G here?
Its reverse-splicing fitness is 0.00382.

Which reverse-splicing fitness does the source give for C82A A111C A145U C169G U176A here?
Its reverse-splicing fitness is 0.0124.

For C82A A111C A145U C169G U176G, which reverse-splicing fitness is on record?
Its reverse-splicing fitness is 0.00756.

For C82A A111C A145U C169G U176C, which reverse-splicing fitness is on record?
The reverse-splicing fitness was 0.0193.

Which reverse-splicing fitness does the source give for C82A A111C A145C C150G C169A U176A here?
Its reverse-splicing fitness is 0.00837.

For C82A A111C A145C C150G C169A U176C, which reverse-splicing fitness is on record?
Its reverse-splicing fitness is 0.00911.

With C82A A111C A145C C150G C169A U176G as the variant, how does the reverse-splicing fitness read?
Its reverse-splicing fitness is 0.00742.

For C82A A111C A120U A145U C150U, which reverse-splicing fitness is on record?
Its reverse-splicing fitness is 0.0169.

Which reverse-splicing fitness does the source give for C82A A111C C150G C169A here?
The reverse-splicing fitness was 0.00766.

For C82A A111C C150G C169G, which reverse-splicing fitness is on record?
The reverse-splicing fitness was 0.00723.

With C82A A111C C150G C169U as the variant, how does the reverse-splicing fitness read?
Its reverse-splicing fitness is 0.00907.

For C82A A111C A120U C150U U176G, which reverse-splicing fitness is on record?
Its reverse-splicing fitness is 0.00381.

With C82A A111C A120U C150U U176A as the variant, how does the reverse-splicing fitness read?
The reverse-splicing fitness was 0.00771.

With C82A A111C A120U C150U U176C as the variant, how does the reverse-splicing fitness read?
Its reverse-splicing fitness is 0.0107.

Which reverse-splicing fitness does the source give for C82A A111C A145U C169A U176G here?
Its reverse-splicing fitness is 0.0095.

With C82A A111C A145U C169A U176A as the variant, how does the reverse-splicing fitness read?
Its reverse-splicing fitness is 0.0138.

With C82A A111C A145U C169A U176C as the variant, how does the reverse-splicing fitness read?
Its reverse-splicing fitness is 0.0156.

With C82A A111C A120U C169A U176G as the variant, how does the reverse-splicing fitness read?
The reverse-splicing fitness was 0.00184.

With C82A A111C A120U C169A U176C as the variant, how does the reverse-splicing fitness read?
The reverse-splicing fitness was 0.0037.

Which reverse-splicing fitness does the source give for C82A A111C A120U C169A U176A here?
The reverse-splicing fitness was 0.00417.

With C82A A111C C150U C169A U176C as the variant, how does the reverse-splicing fitness read?
Its reverse-splicing fitness is 0.0125.

With C82A A111C C150U C169A U176G as the variant, how does the reverse-splicing fitness read?
Its reverse-splicing fitness is 0.00801.

For C82A A111C C150U C169A U176A, which reverse-splicing fitness is on record?
The reverse-splicing fitness was 0.0146.

For C82A A111C A145C C150U C169U U176G, which reverse-splicing fitness is on record?
Its reverse-splicing fitness is 0.00776.

With C82A A111C A145C C150U C169U U176C as the variant, how does the reverse-splicing fitness read?
Its reverse-splicing fitness is 0.0108.

For C82A A111C A145C C150U C169U U176A, which reverse-splicing fitness is on record?
The reverse-splicing fitness was 0.0133.

For C82A A111C A120U C150U C169A U176G, which reverse-splicing fitness is on record?
Its reverse-splicing fitness is 0.00324.

Which reverse-splicing fitness does the source give for C82A A111C A120U C150U C169A U176A here?
The reverse-splicing fitness was 0.00537.

With C82A A111C A120U C150U C169A U176C as the variant, how does the reverse-splicing fitness read?
The reverse-splicing fitness was 0.00323.

For C82A A111C A145C C150G C169U, which reverse-splicing fitness is on record?
The reverse-splicing fitness was 0.0102.

Which reverse-splicing fitness does the source give for C82A A111C A145C C150G C169A here?
Its reverse-splicing fitness is 0.00764.

With C82A A111C A145C C150G C169G as the variant, how does the reverse-splicing fitness read?
The reverse-splicing fitness was 0.00663.

Which reverse-splicing fitness does the source give for C82A A111C A145U C169A here?
Its reverse-splicing fitness is 0.0078.

Which reverse-splicing fitness does the source give for C82A A111C A145U C169U here?
Its reverse-splicing fitness is 0.0124.

With C82A A111C A145U C169G as the variant, how does the reverse-splicing fitness read?
The reverse-splicing fitness was 0.0101.

With C82A A111C A145U C150A U176A as the variant, how does the reverse-splicing fitness read?
The reverse-splicing fitness was 0.0127.

Which reverse-splicing fitness does the source give for C82A A111C A145U C150A U176C here?
Its reverse-splicing fitness is 0.0205.

Which reverse-splicing fitness does the source give for C82A A111C A145U C150A U176G here?
Its reverse-splicing fitness is 0.00868.

With C82A A111C C150A as the variant, how does the reverse-splicing fitness read?
The reverse-splicing fitness was 0.0239.

With C82A A111C C150U as the variant, how does the reverse-splicing fitness read?
The reverse-splicing fitness was 0.113.

For C82A A111C C150G, which reverse-splicing fitness is on record?
Its reverse-splicing fitness is 0.016.

For C82A A111C A145G U176C, which reverse-splicing fitness is on record?
The reverse-splicing fitness was 0.0992.

Which reverse-splicing fitness does the source give for C82A A111C A145G U176G here?
Its reverse-splicing fitness is 0.017.

Which reverse-splicing fitness does the source give for C82A A111C A145G U176A here?
Its reverse-splicing fitness is 0.0768.

For C82A A111C A145C C150A C169U, which reverse-splicing fitness is on record?
Its reverse-splicing fitness is 0.00921.

Which reverse-splicing fitness does the source give for C82A A111C A145C C150A C169G here?
Its reverse-splicing fitness is 0.0093.

With C82A A111C A145C C150A C169A as the variant, how does the reverse-splicing fitness read?
Its reverse-splicing fitness is 0.00835.

For C82A A111C A120U C150A C169G U176G, which reverse-splicing fitness is on record?
The reverse-splicing fitness was 0.00295.

For C82A A111C A120U C150A C169G U176A, which reverse-splicing fitness is on record?
Its reverse-splicing fitness is 0.00598.

For C82A A111C A120U C150A C169G U176C, which reverse-splicing fitness is on record?
The reverse-splicing fitness was 0.00395.

With C82A A111C A120U C150A as the variant, how does the reverse-splicing fitness read?
The reverse-splicing fitness was 0.00696.

Which reverse-splicing fitness does the source give for C82A A111C A120U C150G here?
The reverse-splicing fitness was 0.00737.

For C82A A111C A120U C150U, which reverse-splicing fitness is on record?
Its reverse-splicing fitness is 0.0167.

With C82A A111C A145C C150G C169U U176G as the variant, how does the reverse-splicing fitness read?
Its reverse-splicing fitness is 0.00706.

For C82A A111C A145C C150G C169U U176A, which reverse-splicing fitness is on record?
The reverse-splicing fitness was 0.00753.

For C82A A111C A145C C150G C169U U176C, which reverse-splicing fitness is on record?
The reverse-splicing fitness was 0.0112.

For C82A A111C A145C U176C, which reverse-splicing fitness is on record?
The reverse-splicing fitness was 0.0878.

For C82A A111C A145C U176A, which reverse-splicing fitness is on record?
Its reverse-splicing fitness is 0.0639.

Which reverse-splicing fitness does the source give for C82A A111C A145C U176G here?
Its reverse-splicing fitness is 0.0188.

Which reverse-splicing fitness does the source give for C82A A111C A145G C150U U176C here?
The reverse-splicing fitness was 0.086.
